The nature of this data set: soluble on expression in E. coli; label from the status in PepcDB or PDB records.
Consider “MRSELCCCRAVKRAAPEESIEEDDSYEDSDLEEGGSSYDEGTVDSESSAEDQEDKDVPVSEKKKRKLPSDVTEGKTVFIRNLSFDSEEEALGEVLQQFGDLKYVRVVLHPDTEHSKGCAFAQFMTQEAAQKCLAAASLEAEGGGLKLDGRQLKVDLAVTRDEAAKLQTKKVKKPTGTRNLYLAREGLIRAGTKAAEGVSAADMAKRERFELLKHQELKNQNIFVSQTRLCLHNLPKAVDDKQLRKLLLEATRGEKGVRIKECRVMRDLKGVHGKMKGQSLGYAFAEFQKHEHALRALRHFNNNPEIFGSQKRPIVEFSLEDRRKLKVKELRIQRSLQKMESKPVTSKPQKEQKEVGKDKQQKAVQSATQDQSKAPGEQKGKAGSTSWTGFQTKAEVEQVELPDGKKRRKVLALPSHRGPKIRLRDKGKVKSLPSRKPKPQMGQRKQKKQQLASSVQAPKRKAKENKAEARFNQLVEQYKQKLLGPSKGAPLMKRSKWFDS”, for which the “soluble on expression in E. coli” value is listed as “soluble”.
Regarding “MARVVVLGAGIGGLPTAYELKHRLGDRHEVILVSDVDRFTFIPGLVAVALGHNSLERLQVPLETVSRRHGLRWVQGKVQRLAPQEKKIYLPEQALDYDYLVIATGAELAVDLIPGLGIHSHSVCTPAHAVAAQRAWQEFLKEPRDLVVGAAPGASCFGPAYEFLFLAEHALRHHGLRDRVKITFITPEPYVGHLGIGGLANSDQLTRNLIEKRGIETITNAEITAIEPHRILLRDRPVIPFGYSMILPPFRGVPFVRASGLGNEKGFLPLLPTLQHPNYPEIYGVGISVHLPPLEVTPVPVGVPKTGQMTEEMAIAASHNIAVALGELVADPVVPTLDALCFADFGNTGIAYIAAPVIPEPPGENRRLACALQGLWVSWVKAAFERYFLLKMRWGLGVPWFEQWGLRLFFGLSLVRPLQPTVFPEQQPIMKVLEHHHHHH”, the “soluble on expression in E. coli” value is “not soluble”.
As to “MSLSELAVTEAEKGQDMIRSAVGEIKITNASLACYSWPRAQPIQNGLHTYVNVNIAITKIETDIGITGYGIGRNNPGENAIRHQFLSTMIGKDPTATAAVWAQLWSPKLYGRRGQETKALSSIDMALWDIKGKIAGMPIWRLLGGYRNRIPTYVAGGYYAKGKGLKDLQQEMANHVERGARGVKMKVGAVDIAEDVERINAVRKALGPDIKLMIDANCAYTYFDAIRLAKRVEEFDIYWFEEPVQPDDYEGFTKLSRATSIPLATGENEYTKHGFRDLIATQAISFLQPDARYMGGVTEFMKVAAMAEAHGLVICPHGDQQAHIQLLGAIPNAHLLEFYPKELNPMFGSVYKHTPDLNEDGTVTIPDVPGMATEPNEKMLERYRVAEGHHHHHH”, the “soluble on expression in E. coli” value is “soluble”.
As for “MGSDKIHHHHHHMESSFEVETRTVFDRYQRQQENDDHIFDRLVSLIEEEYFGLPTGSFRGLDVLDAGCGSNANASWAFLDKGARNVVSLELSNDWMDCARKRLSRFGLRSELVAGSVLDLPFDDFSFDFVHCAGVLPHTSNPKKGFEELARVTRPGGSFFLTIMGTANGVIYRCINHLRELYQSDEQFRSSIDNLDASTAREAINWLLRIKDGEEKEYIPGENEFFRSLFDDDLFVTIRDRFQAPTYHEFAFTEAQIRGWYGECGFEKIRRISRYTKNFHNLRRFLAPMYRHYDHPLARFWFGDGCIQMIGEKPST”, the “soluble on expression in E. coli” value is listed as “not soluble”.
Take “MNKIHLCTLAVLTSLSFSSLAKDCDANLLPSWKDSDSKTAIVNFVEQSTDSSKATFIPVSDRIAVFDNDGTLWSEKPIYFQIAFALDQIKALAKTHPEWKTQEPFKSVIENDLEKVFAGGKESLLQIMKVTHSGMTVEEYQQSVEQWLAAAKDKRFGKAYNDLTFKPMREMLTYLQENNFKTYIVSGGGVDFMRVWAPEAYNIPEEQIIGSALKYEYSFNDGQPKVMKLGELLTLDDKEVKVENIQYIIGKKPVLAVGNSDGDQAMMQWATSQPNSMAMIVHHTDEAREWKYDRQSDVGRLDKALDEANERDNWQLIDMKNDWCAVY”: the “soluble on expression in E. coli” value is on record as “not soluble”.
Then “MGSDKIHHHHHHMYLVEVFFTYRQPQKLPISNISYLINQIIEQWRYNGQIIGREIPLFVAVQNNEEGFALRVTCPEQQSLLPTFNNIQVDKALKQAKSAGIFFDSFQIIADDLNSDITYSKEVATWQVLYTTYLQSCSPLHSGDNLLPIPLYKQFKNIPHLSMDIIKWQENWQACDQLQMNGSILEQQALYEISDFNSHLTKHGYYLTQEIEKHTGIPTFYYLYRIGGDDLQSEQQRLCPNCQQKWHLDKPLFNLFHFKCDHCRLVSNLSWHWQ”, with “not soluble”.

Source of the values: the DeepSol protein solubility set.
